From the domain aggregation screens of Martell et al. (2025)

assay: soluble fraction after stress (log2 fold change); higher = more stays soluble; pooled small domains, quantitative proteomics; settings: stress: pH 4
Summary of the method: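 Following acid stress at pH 4, the amount of each small protein domain still soluble was measured in pooled custom libraries by high-throughput quantitative proteomics. Its fold change, on a log2 scale, is higher when more of the domain stayed soluble. This fold change is taken as a measure of aggregation propensity.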

| Sequence | soluble fraction (log2) |
| --- | --- |
| HMDTDVFLMDLRGESRDYAEEVLINNNLEVKVIILPFSKRHYPGKVVEMRPSPFTKVKKGRIITLSVAGN | -1.11 |
| HMTEEPISDGIKKLVEEWENIEGNLIMIFHGIQKHYGYVPRNVAKYVSEAIDVPLTRIYEILTFYNYFTM | -1.43 |
| HMRRKNQVQSSYQKRENGTYTVRFFLSDDMGSIMDLQLMATREDMARALRERFLKDPEKIYGQIMQMLLR | 0.241 |
| HMSALAEELIKKNQAMILTIKPRDTIWGIANRFQSPPSEKFINQIIELNQVDPYRLRIGQDLLIPLN | 0.00792 |
| HMTEEYAVLWRVARQTLKPEAFDVLWMKYREQLSIAEIAGIMNRSETSVKVMLHRARKNLGTALESS | -0.262 |
| HMPTELVYTVPASAEGLRLDHFLVQHVPHMTRALATELTGAGGVRVNGRRAKKGDRLPSGAEVRLER | 0.286 |
| HMSPQPPNQEAVRTRILDQAAHLFLTIGYAETTVRRIAGAVGIKAASLYHHFGSKDEVFESILIR | 0.21 |
| HMIVVMARETSTDDLEAIRERIESRGMVAQINLGVERTVIGVMGSIPPDFKDEMELMNGVVEVVMISK | -1.64 |
| HMLTPQEIGSRLKLVRQGLQLKQQEVAEIIGTSQLKISKIEQGATVTTPDFLKLLAFYSQSVSLDILF | -0.652 |
| HMYPNEFPRKVMSVFESSGLEMFRTIEMLLAIPEYETPLPYGSGVSRSDIFVLAKSAGNLVSITV | -0.314 |
| HMQMPDLTGKPRAEAVTTLAALGFTDVKFLDASAGDEPLDYVADQVVRTSPEAGAALASGQQITIYLAT | -0.0191 |
| HMKRRSVIVSVVRAQVRQSADEAAAVVFEAEKNVSLDYLETMPGGWVKVRHRDGQTGFVRVNQIWG | -0.79 |
| HMGDLDLVTFGQRLRHLRRSRNMTLSELGERVGRAPSQLSLLENGKREPKLSLLTALAKALDVSVEEL | 0.178 |
| HMGSDLVAWAQTRIGRHPEEAADVIAALIDRHGEARVRAASRSLLARKFAHASDLRTAIDAAIG | 0.0531 |
| HMQISDEGELSGIVRKIIDANPQSVADYKAGKKKAIGFLVGQIMIETKGRANPASVNELLIKKLE | 0.105 |
| HMGQGAASAPLRELGVDPVSEKQMVLKDGRFGPYVTDGETNASLRKGDEVETITDERASELLQMRRDAGPS | 0.0347 |
| HMPESFSEMQKRTGVGEFSDDALSAKYVDSIDADVMSLDEYIMKVRGISLDDLEAERALRAR | -0.884 |
| HMEKKEWVIYITGAVKKPGVYRIPEGARVYQALEAAGGFTPEADRDAVNLAAMLQDGAHIKFPAVGEEV | 0.0865 |
| HMLVGGPDTPSKVTVSFDLGSRQAVDELTERAGAAGGRIGDIDDYPFMYQRQFDDPDGYHYSPFWMKP | -0.528 |
| HMTYVSVSNYIGTNVDKAKGELESQGLVVLLEEQKTEDKSQDGMVLKQTIEGGTKVSSGSRITLIYGRYT | -0.117 |
| HMSFTSQSVLIEIVRGTTQLTPLAAAVGANKREVVLAVHRLKQRGLVVSAGLGQYAATEAGRAFLTAGREV | ≥ 0.43 |
| HMFNGDPTTRESILASARAEIDQYGIIGLRLSAVAEKAQVSVPLIYKYFEDRDGLLAVVLGDW | -1.36 |
| HMSSDLDQYMKNIRKQHNLSKREFAKQLGISAATIVRIENGITVSPSKNLISKLAYYLQKSEVEILQDIQS | -0.393 |
| HMNKMHKLPSVSEILNKVRLQKIHNESFIKFKIKEEIDRYRKLAKKDQLFLSRDEITYEIIEKLLNFSMPS | -0.771 |
| HMTRHSSVDFAGYILRNKENEPIFGFGKHKGKTVVEVLQREQGYFGWLMEADFPLYTKKVLTAIRLNTLNS | 0.316 |

| Sequence | soluble fraction (log2) |
| --- | --- |
| HMSSRSLSYSDFIERVDAGQVSKVVMDGERLVVVGQDGTSYVTIKPPGDQVTENLSRELISKGVEVEAEPQ | ≥ 0.43 |
| HMIELDRTNLLGVFGPKSRPYALLMLSNGEMIKISIGDQFFGWRVYGIDEKSIQVQNGTKQEILRIP | -1.19 |
| HMRELSDFEKLLFTTTLERKMINLAMLLTRSNKADSKDLIQDSYLKAIENQVQFNGNNIDAWVITILKNTF | -0.361 |
| HMAWIAVATKEDYSEYEWKELSPTTDWSTQTFDLGDLAGKTIYAVKMFFDHDTDVKDYKFNLGQLSITSN | -1.22 |
| HMATFTPYLVRITASVLNIRKGPGTTYAVTGQIKDRGVYTIVEQKGNWGRLKSGAGWISLSYTKK | 0.065 |
| HMDKEKLQEKLLQIFEAEPQKKFQVQDLVKVLDMEGAGQFKFVVQALADLEHNKQIKLSEDDTFSLIVKE | 0.22 |
| HMSIAKIIGDRIRAYRNQKGWSQEYLAEKADVHHTYIGQLERGEKNATIESISKIAGALGVSLSRLFEN | 0.192 |
| HMTVPNVVGQRILAAQDILKNLGLKVLVDTNLPNSQWGLRNVKSTNPGAGAVVRVGDTVTLIAR | 0.124 |
| HMGGNVYAYRLTASVKSGEQIPANKIEKVKMLSSDLPTNYVPDTVNVTAYKSKLDLQAGTILSTSLLYEN | 0.247 |
| HMDPTYYFNLYPNPSKDEVSLFTNFTGKINIEILDLAGKSILSDNPISTISLVSLKEGLYLVKVKS | -0.337 |
| HMRSPLYVQIKQHILGDIRKGVWKPGEKLPTELDLAERFGVSVGTVRRAMGGLEDEGIISRREGSGTFVRT | 0.229 |
| HMRMLLKELLIQYEVKNDKSHVEVAKEVGVSLSTYYRWLNGESLHLKKRTIDRLSEVLHYDINQVVEES | 0.0267 |
| HMSSEPASLVGKTGVAASVLRPSGRVEVNGEYYDAVSINGFIEKGESVFVHKYENAQLYVSKNSE | -0.183 |
| HMADAGQTTAATELKQAPNAGSATISQLSAGQTLQIGTRQGAWYQVKTPQGEGWVRMLSVRLQ | 0.0688 |
| HMAEQVLHQKLAARRKELNSLVAQVARVRGIPHSHVHSGLRREAGGPPLAQATTDQVEARISLARKWLRA | -0.000969 |
| HMVVRKHDRYYTPEHRKLLMDTYERTNKYPTKQDMSELAKIIGVLPIKILWWYTHRRRQDRRKGEESSSP | -2.23 |
| HMIKEGDLVFIWNPKKGDSFLIKVQPGQSQGTHFGQIKHSEIMEHNYGEGIRTPKGQVYYLLRPTLGEFTR | -0.38 |
| HMATTMSADWRPSEDAVGILVNAEINARFIEDAIPEFVLYWRERGAVHGAWNSKFIEHIRRQWAKFSAS | -1.31 |
| HMAHETIDVAALRVGMFVQLDLGWLSHPFPLSSFRISSEDQIATIRALGLKRVRWSSEQSDS | -2.26 |
| HMKLRYRTQEELLGVAREYRRRGLPLSVIVIDFYHWTKFGDWKFDPAYWPDPVGMVRELRDMGVEAAV | 0.22 |
| HMIDQIAEQLQQRLAVDTAFATIQRDYPDVIANKDIELLTAIKVNQKIAEGASRASAMLESAKEVYETL | -0.329 |
| HMHDYNTIVGVIEMRDKNIPLTSIRQRYGIGYSGIDLILTRYKDSGLTLKEFLALDPSQAEELIYPPK | -0.134 |
| HMKRNLVSVLDHIVGIGPKRRQSLRTHFGSLEKIKEASVEELAAAPGMNRTSAEAVRHFFDAQQELRGK | 0.207 |
| HMKPSNLTSDERTQLLAQLKTAMGSDQYNQLRRQVGEEKLLEYVLDNVPGIQEEILGNRAVQENIDLH | -0.266 |
| HMPLQKNRPKIKPQKVVFLFSVEWMWSPAHNRIDSYFINIKPSRYYLWNSFFDRHSFSDYWDFIGYTEN | 0.22 |

| Sequence | soluble fraction (log2) |
| --- | --- |
| HMDSVTVPDISGYSPKAAEDSINNAGLKINEQGLSGSGDGQVVERTSPSAGSKVKKGDSVTVYYSKA | 0.104 |
| HMNSLPFSNFMNEVEAGRVVEVKIQGNNISGVLANGKTFSTYSPNYPELVEKLSSNGVSIVATPQ | -0.0501 |
| HMNTEKRVFAGVENTRLDHFLVEQFPEFSRTFIQQMIKSANVIVNGNIEKASYKLREGDTIMTRPM | -0.0899 |
| HMSADLVYLRKRLQDAIAQLPENMRTAYTLFQIANRSIREISELTGASESLVKVRIHRAKGKLQKQLEDLK | -0.5 |
| HMAITLEVAKKHLEMWLEAESEVAINQSYTIGGKSFTRANLAEIRKQIEYWSNKVAELENLA | -0.247 |
| HMLMYAQDEKEEASNNIPYRLLHMSFTKEQKAELQRAMDVRVPKDIILSYFYPDTPVARMMEIRRQYESA | 0.12 |
| HMNTLSPVRILAILDGRSSMAEWQLAEELGVSIDNLSEILNKMSTDGQIRLVPSEDGRMVVP | -0.0347 |
| HMNDENIIIEEIKYFIKSNQIKEQEKLPSERNLSELFTVSRFSLRKALRHLVDTGYLYVKDKSGYYYQGD | 0.00355 |
| HMVTLQEVKQYLRIDFEEEDPLLLSLLATAKQQVMNVGRMDEAQLSEHEDTARTAILYAVSYLYENRN | -1.63 |
| HMTVKEVGYDTFLTMLDKKEIKQVQVEDNQIIFSDNADPVNYYKTGVFNDPDLVNRLQDAGVEFG | -0.37 |
| HMHRTMFYLDVDLAEGQSVKMAVHEDDDPGELAARFADEHQLKSRAMEKLRSVIEENVRLHRRNQ | -0.306 |
| HMQDKLLRKKEVLEMVSITNSTMYRMIGSGQFPRPIRLDNANINSGVRWKLSEINTFIEQRF | -0.893 |
| HMKAMIIVMKPGADMATISKVLKTIETNGFKPHLSKGEETTVIGVIGDERKLNPDIFSTLEGVERIVPVA | 0.279 |
| HMDSKYLRIFSTLIDEMEKMSPGEQLQSERELSQRFQVSPMTVRRALHKLSTEGYTSAIPGKGTFVRK | -0.0388 |
| HMPYLVNGFILEVQSDDNNPVGTLKRRYAVAKNKQGVILLEGEKSFSSNDQILINELKFYIQSNDLKA | -1.39 |
| HMNAKNPRALAIQYVFKMQMGNFLHAKTDNQQQEQERIMTLFNEENKNTILPRWGKELLSYINRN | -0.208 |
| HMKKSRLHSVLEEIPGIGEKRRKILIKHFGTVEAIKKSSLEELARIKGMNRRAAQNVLEYLK | 0.407 |
| HMTAVNEHELMNQFKLSLGYANGDDPQTKLSTDEKNDFMRFKEWATAMTKDSKMGKDPDYLKKLAVQWTLK | 0.102 |
| HMLKEGQYSPNHFHWHKMEDIINRGGGTLLIRVYNSLPDEEIDRESDVTVHMDGVTRTVPAGTQLRLE | -0.345 |
| HMENKLIELTLSLDKSERLDKILTQELSHTRSVIQQWLKSGFVSVNGEIVKANYKAKDGDHVTIQIE | -0.379 |
| HMSEYITEGWLREKFGLGWGTEVHLPLDSRLTPAAHQLLEERKIVIKYIDAEGRVFNPDKSGEEAPVQ | -0.343 |
| HMNDLIKMPYLVGQLYDDVASNQEYADFQFKITEGNDPDKQPGEIMKQDPAADIMVKKNAEVELLVNG | 0.193 |
| HMVMNKQEFLKILRDTLQSQLSSRETENHVEYYRTYIEEQMREGKTEIEILDVLGDPRLIARTILET | -0.253 |
| HMNTPTLLLYGGKDHSVPEAGIRHLRAHLSANDRGEYRFYPNAPHLLLQSRQWQQVSQDISQWLAMT | 0.0454 |
| HMALKQADFDFIRQMIQQRAAIVLDDNKHYFVESRLGPVVEETGSKSLDQLIDQLRSSSNSLLQQKVTEAI | -0.324 |
